This series can be described thus: soluble on expression in E. coli; label from the status in PepcDB or PDB records.
For “TLKGKTALVTGSTSGIGLGIAQVLARAGANIVLNGFGDPAPALAEIARHGVKAVHHPADLSDVAQIEALFALAEREFGGVDILVNNAGIQHVAPVEQFPLESWDKIIALNLSAVFHGTRLALPGMRARNWGRIINIASVHGLVGSTGKAAYVAAKHGVVGLTKVVGLETATSNVTCNAICPGWVLTPLVQKQIDDRAANGGDPLQAQHDLLAEKQPSLAFVTPEHLGELVLFLCSEAGSQVRGAAWNVDGGWLAQ”, the “soluble on expression in E. coli” value was “soluble”.

Take “MRACLKCKYLTNDEICPICHSPTSENWIGLLIVINPEKSEIAKKAGIDIKGKYALSVKE”: the “soluble on expression in E. coli” value was “soluble”.

For the sequence “SERRLGVRAWVKENRGSFQPPVCNKLMHQEQLKVMFIGGPNTRKDYHIEEGEEVFYQLEGDMVLRVLEQGKHRDVVIRQGEIFLLPARVPHSPQRFANTVGLVVERRRLETELDGLRYYVGDTMDVLFEKWFYCKDLGTQLAPIIQEFFSSEQYRTGKPIPDQLLKEPPFPLSTRSIMEPMSLDAWLDSHHRELQAGTPLSLFGDTYETQVIAYGQGSSEGLRQNVDVWLWQLEGSSVVTMGGRRLSLAPDDSLLVLAGTSYAWERTQGSVALSVTQDPACKKPLG”, the “soluble on expression in E. coli” value is “soluble”.

For the sequence “MERSAIQIPAGRIDDAVAKVDGLVGELMQNTGIPGMAVAIVHGGKTLYAKGFGVRDVGKGGGPDNKVDADTVFQLASVSKSVGATVVAHAVTDNVVTWDTPVVSKLPWFALRDPYVTGQVTIADLYSHRSGLPDHAGDLLEDLGYDRRQVLQRLKYLPLAPFRISYAYTNFGVTAAAEAVAAAAGQSWEDLSDEVLYRPLGMGSTSSRFTDFLARPNHAVNHVKVADRWEARYQRDPDAQSPAGGVSSSLNDMTHWLAMVLADGVYNGRRITSPEALLLVYTPQVISRHPVSPRARASFYGYGFNVGVTSSGRTEYSHSGAFGLGAAANFVVLPSEDLAIIALTNAGPIGVPETLTAEFMDLVQYGQVREDWAALYKKAFAPLNELAGSLVGKQSPANPAPSRPLNDYVGVYANDYWGPATVTYHDGQLRLSLGPKNQTFDLTHWDGDTFTFTLSTENALPGSISKATFAGDTLNLEYYDADKLGTFTRLEHHHHHH”, the “soluble on expression in E. coli” value is given as “not soluble”.

Turning to “METIKISEQELINALCIYIAEKRQVGPEEVLVELMYDDDYGFSAEVEVNGRQQILIQANLIEALRLLLDREYNVNPFAARLQLELDDEEGIYALAKFNNSDD”, the “soluble on expression in E. coli” value is listed as “not soluble”.

“MLRVGPLTIGTLDDWAPSTGSTVSWRPSAVAHTKASQAPISDVPVSYMQAQHIRGYCEQKAKGLDYSRLMVVSCQQPGQCDIRAANYVINAHLRRHDTYRSWFQYNGNGQIIRRTIQDPADIEFVPVHHGELTLPQIREIVQNTPDPLQWGCFRFGIVQGCDHFTFFASVDHVHVDAMIVGVTLMEFHLMYAALVGGHAPLELPPAGSYDDFCRRQHTFSSTLTVESPQVRAWTKFAEGTNGSFPDFPLPLGDPSKPSDADIVTVMMLDEEQTAQFESVCTAAGARFIGGVLACCGLAEHELTGTTTYYGLTPRDTRRTPADAMTQGWFTGLIPITVPIAGSAFGDAARAAQTSFDSGVKLAEVPYDRVVELSSTLTMPRPNFPVVNFLDAGAAPLSVLLTAELTGTNIGVYSDGRYSYQLSIYVIRVEQGTAVAVMFPDNPIARESVARYLATLKSVFQRVAESGQQQNVA”: the “soluble on expression in E. coli” value is reported as “not soluble”.

On to “MTHNGGRHLLEAVTLCGSILTRYKRSNMKLDEAEVRALKELFEKYQDILVDGSPGLPTHASGPMIQPPVTNMVAPYDSPTDTIVKFVEGTINLQRPIVEVLHVMNEHLSLVLRAKNTHVFYVDPVNNLLYDPIHGVAAALDESSPIGKAIVSGERLNVAGTLYIPIISEGMPLGCVLSPCGRADYHASTMLESSLRVISTSLKNIIQAEKLNWNKEKAEAMLRMATQLARDNLEETVLASSIMNTVKSLTESARCSLFLVRGDVLEAHFEDGNVVTIPRGAGIAGYVAQTGETVNIVDAYADDRFNREVDKATGYRTKTILCMPVMYEGTIVAVAQLINKLDLTTESGLRLPRVFGKRDEELFQTFSMFAGASLRNCRINDRLLKEKKKSDVILDVVTVLSNTDIRDVDGIVRHALHGAKKLLNADRSTLFLVDKERNELCSRMADSVAGKEIRFPCGQGIAGTVAASGVGENIQDAYQDPRFNREVDKQLGYRTQTILCEPIILNGEILAVVQLVNKLDTSGEVTVFTEDDRETFRVFSLFAGISINNSHLLEFAVKAGREVMELNEHRATLFNKNVPSRAVKRVTAITKVEREAVLVCELPSFDVTDVEFDLFRARESTDKPLDVAAAIAYRLLLGSGLPQKFGCSDEVLLNFILQCRKKYRNVPYHNFYHVVDVCQTIYTFLYRGNVYEKLTELECFVLLITALVHDLDHMGLNNSFYLKTESPLGILSSASGNTSVLEVHHCNLAVEILSDPESDVFGGLEGAERTLAFRSMIDCVLATDMAKHGSALEAFLASAADQSSDEAAFHRMTMEIILKAGDISNVTKPFDISRQWAMAVTEEFYRQGDMEKERGVEVLPMFDRSKNMELAKGQIGFIDFVAAPFFQKIVDACLQGMQWTVDRIKSNRAQWERVLETRLSTSSGNNSSTR”, for which the “soluble on expression in E. coli” value is on record as “soluble”.

As for “MKIVCIGAAPTALGAAYRLNELKNEGNEAAQNAEIVLLEQEAIAGGLSCTVTDEKGFLWDMGGHITFNHNYPYYEKATQWAVDDWNKLARNCMVDMNYLYDKKGIHLVPYPAQFAVPLFPDEVKNRCLADLKERYENPQDGTTPDNFEEWVLQHFGPTILNTFFKPYTKKVWTVEPLKMSPNWVGSRVAKLPQEKLEELCSMDQAELANADFGWGPNSYFTFPTYGGTGNVWNSMAKKLPNEWFKFNNKVTGVDHKEKTVEILEKGQTEPTKMSYDVLLNTAPIDQLVNNTQITAPLDIVHNKVFIVGVGLRKPMTSFLEKFTWLYFPDREVPFFRVTILSRYGEVTPDGDKYWSVMCECARPIDDPITEEEMVKKTLDGLVIKDMITREAIESVYSITLPYGYPIPTPNRDRELARAHGELERHQIYSRGRFGGWKYEASNQDHCFIQGKEFIDRVILGEPEKLYKTGVPTIPRGAAALEHHHHHH”, the “soluble on expression in E. coli” value was “soluble”.

For “MQLKRVAEAKLPTPLGDFLMVGFEELATGHDHAALVFGDISGKTPVLARVHSECLTGDALFSLRCDCGFQLEAALTHIAEEGRGILIYHRQEGRNIGLLNKIRAYALQDQGYDTVEANHQLGFAADERDFTLCADMFKLLGVDEVRLLTNNPKKVEILTEAGINIVERVPLIVGRNPNNEHYLDTKAAKMGHLLSKLEHHHHHH”, the “soluble on expression in E. coli” value is given as “soluble”.

For the sequence “NRSLNELSLSDILIAADVEGGLHAVDRRNGHIIWSIEPENFQPLIEIQEPSRLETYETLIIEPFGDGNIYYFNAHQGLQKLPLSIRQLVSTSPLHLKTNIVVNDSGKIVEDEKVYTGSMRTIMYTINMLNGEIISAFGPGSKNGYFGSQSVDCSPEEKIKLQECENMIVIGKTIFELGIHSYDGASYNVTYSTWQQNVLDVPLALQNTFSKDGMCIAPFRDKSLLASDLDFRIARWVSPTFPGIIVGLFDVFNDLRTNENILVPHPFNPGDHESISSNKVYLDQTSNLSWFALSSQNFPSLVESAPISRYASSDRWRVSSIFEDETLFKNAIMGVHQIY”, the “soluble on expression in E. coli” value was “soluble”.

For the sequence “MAHHHHHHMTACSARAQAAAAVHTVVVSLTARREWWKHTCALDSASVFIVHTSDCPPPNRYTARAYPLRCEARLSLHVYANLPAPVSRQCITFLSFRGIYLSPLFCCPPLRHSFHAPAHQFQPPPPSSPFPTLPTRATQHHHHCSHTRVHQICPAVPSLSALSNILTVSAMSAKTAAAPSERSFVDRFVRSHAGAATAAGILEIGFFHPFDTIAKRLMANKGSIMRGSTGETAANLNIIVFKKHADAGFLRKVVYLYPGSLYATVYKVFQRVYKFAGQPLVRDFLSSNYRDGFKRYFGEAHKVMEDATAGCLIGLGEVFLLPLDRLKVLSQTNEAAMRSGLLPLLRQEGFRGMYAGTVVTMCRNAPGSFCLFGGTAFTKGYIFGLSDYRHATLFQNMCASTVGACVAIAISNPMDVVKTRVQQQTAAERCSGMAMATAMLKEEGMLSFFKGLTPKIIASAPKLIFAYTMTEFFFKVMNDSKKH”, the “soluble on expression in E. coli” value is on record as “not soluble”.

Consider “MERLEEARKRLEEARRVAVLTGAGISKPSGIPTFRDAEGLWKNFNPLDYATPEAYARDPEKVWAWYAWRIQKVREAKPNPAHYALVELERRILSRGGSFLLVTQNVDGLHALAGSQNLVELHGNLLRARCEACGKRFPLPEAFAPPPFCPACGHRARPDVVWFGEFLPEGAWERAERAFAEADFALVVGTSAEVEPAASLGRIAFASGAYLVEVNPEPTPLTPLAHLSLRTGAVEGMALLLPPSPEDQAEGHLS”, for which the “soluble on expression in E. coli” value was “soluble”.

For “MKRFLLSLLALTTLVGCNSKDDNTPTPAKPLSEQQQAYLPTKKVKRISCTYIDEGTTSNTNSPNSYLEAELYNQTYTLRTAEYLYEYDNMGRINKVTIKQERKPEDVRTFTYKDYSVIITAPYDTEVNGQYDIQAVEYGLNAAGNTLGFGMYNEKQQLKSVGDEIITWENDNITKIISKDDREGNKILETVLTYYNNENKNKFNVFSFDFSRESRSFMNYFEMPIALIIGASPKNLPKKVVIPSSRYNGEIENKIIELTYTFDNDGFVKNISENEYLRTGTSVGAYYQNSSYGDIDATTMSNTLQDLMTKIDNGTVTGKSYKIINNKQNERVIQFTIPIKVEKDSNGKPLNLIVDKICEYTFRYITENNQKKLSQIEMNITFKPHLVTHYELNY”, the “soluble on expression in E. coli” value is “not soluble”.

Consider “MKIQLIAVGTKMPKWVEEGFQEYRRRFPHDMPLELVEITAGKRGKNADIARILQKEGEAMLAAVPKGNRIVTLDIPGKRWDTEELAVQLESWKLDGRDVSILIGGPEGLAPACKAAADQSWSLSPLTLPHPLVRVVMAESLYRAWSITTNHPYHRELEHHHHHH”, for which the “soluble on expression in E. coli” value was “soluble”.

Consider “MGSDKIHHHHHHMTRYQHLATLLAERIEQGLYRHGEKLPSVRSLSQEHGVSISTVQQAYQTLETMKLITPQPRSGYFVAQRKAQPPVPPMTRPVQRPVEITQWDQVLDMLEAHSDSSIVPLSKSTPDVEAPSLKPLWRELSRVVQHNLQTVLGYDLLAGQRVLREQIARLMLDSGSVVTADDIIITSGCHNSMSLALMAVCKPGDIVAVESPCYYGSMQMLRGMGVKVIEIPTDPETGISVEALELALEQWPIKGIILVPNCNNPLGFIMPDARKRAVLSLAQRHDIVIFEDDVYGELATEYPRPRTIHSWDIDGRVLLCSSFSKSIAPGLRVGWVAPGRYHDKLMHMKYAISSFNVPSTQMAAATFVLEGHYHRHIRRMRQIYQRNLALYTCWIREYFPCEICITRPKGGFLLWIELPEQVDMVCVARQLCRMKIQVAAGSIFSASGKYRNCLRINCALPLSETYREALKQIGEAVYRAME”, for which the “soluble on expression in E. coli” value is listed as “not soluble”.

In the case of “MEPNNLKEELVSVFEKACSSHKERLDFICSVRESDTFSNVDVPLAPIKTIIEIAKNEENQTEILKLAIENIKTLSTVGSGQYIASHFSTHNEVAIIFCISYFLYHFNFLHDENKKQLLKRAFEAVAEKIADYLNEN”, the “soluble on expression in E. coli” value is “soluble”.

Turning to “MVAHQKADFKSKWAMVVTVNNLNDKKRADLREFSEWFIETLRLEGAFIGHYFNYEAAPVTIVETLPGNFDSCTNAYQKIHKEHPQVVLVVHILPQSQSNEYEWMKVLASRYGFVRQGLLYDNCANRFQNVETDQNSVFRNMCQWIYRSGTAIVRNEGNACGILHGKDPKPTFDKVLFNSEDIKDSVFKVLHAEEEPRGADQENMLKISGYPGMLNTFGIAQLLTPYRVNGITITGAQSAVVALENKFQVYQAVQDFNGKKLDRNHKLQVSSLVVSSPAVPLEWPSLKKSKKLVEQVGKPIRLSKVSS”, the “soluble on expression in E. coli” value was “not soluble”.

Source of the values: the DeepSol protein solubility set.
